Test results as given in FireProtDB (doi:10.3390/ijms21030752).

Conditions: Homo sapiens, pH 7.5, Thermal, CD, Tris-HCl 20mM, whole UniProt chain shown

B1: Guanylyl cyclase-activating protein 1 wild type, P43080 (protein)
chain: MGNVMEGKSVEELSSTECHQWYKKFMTECPSGQLTLYEFRQFFGLKNLSPSASQYVEQMFETFDFNKDGYIDFMEYVAALSLVLKGKVEQKLRWYFKLYDVDGNGCIDRDELLTIIQAIRAINPCSDTTMTAEEFTDTVFSKIDVNGDGELSLEEFIEGVQKDQMLLDTLTRSLDLTRIVRRLQNGEQDEEGADEAAEAAG
For B1, the Tm (KCL 150 mM) was 49.8 °C and the Tm (KCL and Mg2+ 150 mM and 1 mM) was 50.3 °C.
